What was measured:
[1] = target: zampilimab (human); assay: SPR; as the SPR with calcium (antibody captured by anti-human Fc, TG2 flowed over) but in the absence of calcium (-Ca2+); buffer of this condition not detailed
[2] = target: zampilimab (human); assay: SPR; BIAcore T200; test antibody captured (~100-200 RU) by goat anti-human IgG Fc F(ab')2 immobilised on a CM5 chip; TG2 titrated over it at 100 nM to 6.25 nM, 600 s association, up to 3200 s dissociation; 10 mM HEPES pH 7.4, 0.15 M NaCl, 0.005% Surfactant P20, 2 mM CaCl2 (+Ca2+); 1:1 fit
[3] = target: T1, human transglutaminase 2 (Homo sapiens, UniProt P21980)
T1 sequence (P21980 whole entry): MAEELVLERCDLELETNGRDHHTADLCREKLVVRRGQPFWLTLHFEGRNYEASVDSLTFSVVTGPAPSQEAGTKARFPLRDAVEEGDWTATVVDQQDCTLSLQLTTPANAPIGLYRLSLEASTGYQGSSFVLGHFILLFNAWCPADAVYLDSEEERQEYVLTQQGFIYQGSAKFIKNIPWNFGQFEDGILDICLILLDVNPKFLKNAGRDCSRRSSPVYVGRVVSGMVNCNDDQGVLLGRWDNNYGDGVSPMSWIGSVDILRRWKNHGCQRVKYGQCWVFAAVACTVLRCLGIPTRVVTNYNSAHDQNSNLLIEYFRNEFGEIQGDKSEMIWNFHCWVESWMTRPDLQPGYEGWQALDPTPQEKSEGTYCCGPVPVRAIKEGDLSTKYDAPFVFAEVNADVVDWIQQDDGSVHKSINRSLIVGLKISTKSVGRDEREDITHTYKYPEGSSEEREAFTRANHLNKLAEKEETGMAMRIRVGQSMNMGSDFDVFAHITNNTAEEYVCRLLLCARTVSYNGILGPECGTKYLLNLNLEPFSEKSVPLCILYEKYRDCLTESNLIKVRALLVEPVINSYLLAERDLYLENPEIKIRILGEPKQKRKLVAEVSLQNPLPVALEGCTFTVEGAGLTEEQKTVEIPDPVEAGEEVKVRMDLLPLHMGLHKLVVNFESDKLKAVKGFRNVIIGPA

[4] = target: T1, human transglutaminase 2; assay: cell-based or functional assay
[5] = target: rabbit transglutaminase 2 (Oryctolagus cuniculus (rabbit), UniProt A0A5F9DRZ3); assay: cell-based or functional assay
[6] = target: T1, human transglutaminase 2; assay: cell-based or functional assay; remark: listed apart in the source
[7] = target: T1, human transglutaminase 2; assay: SPR; as the SPR with calcium (antibody captured by anti-human Fc, TG2 flowed over) but in the absence of calcium (-Ca2+); buffer of this condition not detailed; conditions: both partners purified
[8] = target: cynomolgus monkey transglutaminase 2 (cynomolgus monkey)
[9] = target: T2, TG3 (Homo sapiens (assumed), UniProt Q08188); assay: ELISA; ELISA of the humanized antibodies on TG2 and other TG family members; antibody up to 100 nM; format not described
T2 construct: transglutaminase family member TG3; also called transglutaminase 3
T2 sequence (Q08188 whole entry): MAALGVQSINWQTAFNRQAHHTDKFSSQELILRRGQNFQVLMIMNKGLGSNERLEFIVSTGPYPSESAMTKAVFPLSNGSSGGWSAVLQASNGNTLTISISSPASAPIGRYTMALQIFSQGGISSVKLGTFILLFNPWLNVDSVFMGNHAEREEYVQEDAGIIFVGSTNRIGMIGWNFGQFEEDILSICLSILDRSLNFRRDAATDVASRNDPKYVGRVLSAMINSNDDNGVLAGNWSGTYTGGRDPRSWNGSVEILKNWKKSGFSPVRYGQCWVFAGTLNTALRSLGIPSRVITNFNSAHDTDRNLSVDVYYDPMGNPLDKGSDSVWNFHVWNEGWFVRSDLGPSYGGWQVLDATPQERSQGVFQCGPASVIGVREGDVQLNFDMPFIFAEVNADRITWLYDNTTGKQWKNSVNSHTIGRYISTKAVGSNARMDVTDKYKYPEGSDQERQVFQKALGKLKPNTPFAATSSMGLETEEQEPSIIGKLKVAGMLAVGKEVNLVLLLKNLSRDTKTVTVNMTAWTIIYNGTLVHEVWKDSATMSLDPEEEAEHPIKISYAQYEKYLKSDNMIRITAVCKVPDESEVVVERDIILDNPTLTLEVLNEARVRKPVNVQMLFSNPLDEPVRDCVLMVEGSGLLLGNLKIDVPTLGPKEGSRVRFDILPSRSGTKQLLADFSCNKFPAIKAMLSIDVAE

[10] = target: T3, TG1 (Homo sapiens (assumed), UniProt P22735); assay: as above
T3 construct: transglutaminase family member TG1; also called transglutaminase 1
T3 sequence (P22735 whole entry): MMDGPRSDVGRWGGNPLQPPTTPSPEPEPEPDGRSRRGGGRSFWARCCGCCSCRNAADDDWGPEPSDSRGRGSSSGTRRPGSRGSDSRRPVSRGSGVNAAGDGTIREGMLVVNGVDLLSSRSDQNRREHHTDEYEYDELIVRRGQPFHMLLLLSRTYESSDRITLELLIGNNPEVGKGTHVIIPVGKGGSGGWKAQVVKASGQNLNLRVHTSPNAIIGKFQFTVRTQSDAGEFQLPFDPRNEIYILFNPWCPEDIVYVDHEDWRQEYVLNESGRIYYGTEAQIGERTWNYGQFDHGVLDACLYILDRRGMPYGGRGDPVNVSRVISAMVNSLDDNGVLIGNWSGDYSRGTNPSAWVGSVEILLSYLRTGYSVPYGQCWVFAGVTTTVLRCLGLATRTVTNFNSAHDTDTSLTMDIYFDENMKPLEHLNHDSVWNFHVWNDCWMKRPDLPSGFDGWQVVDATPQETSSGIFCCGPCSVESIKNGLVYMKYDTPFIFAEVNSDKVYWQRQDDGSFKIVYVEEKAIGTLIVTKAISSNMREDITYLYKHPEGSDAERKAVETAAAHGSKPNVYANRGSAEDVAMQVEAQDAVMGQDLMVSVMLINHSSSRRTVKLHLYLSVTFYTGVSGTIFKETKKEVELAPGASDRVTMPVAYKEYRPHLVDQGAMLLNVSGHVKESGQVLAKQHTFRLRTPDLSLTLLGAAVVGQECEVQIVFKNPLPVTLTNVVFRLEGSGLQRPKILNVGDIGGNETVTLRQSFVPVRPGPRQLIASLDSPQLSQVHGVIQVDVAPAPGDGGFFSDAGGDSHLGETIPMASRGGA

[11] = target: T4, TG2 (as used in the ELISA of the humanized antibodies) (Homo sapiens (assumed), UniProt P21980); assay: as above
T4 construct: transglutaminase 2 (TG2); also called transglutaminase 2
T4 sequence (P21980 whole entry): as the sequence (P21980 whole entry) above

[12] = target: T5, TG7 (Homo sapiens (assumed), UniProt Q96PF1); assay: as above
T5 construct: transglutaminase family member TG7; also called transglutaminase 7
T5 sequence (Q96PF1 whole entry): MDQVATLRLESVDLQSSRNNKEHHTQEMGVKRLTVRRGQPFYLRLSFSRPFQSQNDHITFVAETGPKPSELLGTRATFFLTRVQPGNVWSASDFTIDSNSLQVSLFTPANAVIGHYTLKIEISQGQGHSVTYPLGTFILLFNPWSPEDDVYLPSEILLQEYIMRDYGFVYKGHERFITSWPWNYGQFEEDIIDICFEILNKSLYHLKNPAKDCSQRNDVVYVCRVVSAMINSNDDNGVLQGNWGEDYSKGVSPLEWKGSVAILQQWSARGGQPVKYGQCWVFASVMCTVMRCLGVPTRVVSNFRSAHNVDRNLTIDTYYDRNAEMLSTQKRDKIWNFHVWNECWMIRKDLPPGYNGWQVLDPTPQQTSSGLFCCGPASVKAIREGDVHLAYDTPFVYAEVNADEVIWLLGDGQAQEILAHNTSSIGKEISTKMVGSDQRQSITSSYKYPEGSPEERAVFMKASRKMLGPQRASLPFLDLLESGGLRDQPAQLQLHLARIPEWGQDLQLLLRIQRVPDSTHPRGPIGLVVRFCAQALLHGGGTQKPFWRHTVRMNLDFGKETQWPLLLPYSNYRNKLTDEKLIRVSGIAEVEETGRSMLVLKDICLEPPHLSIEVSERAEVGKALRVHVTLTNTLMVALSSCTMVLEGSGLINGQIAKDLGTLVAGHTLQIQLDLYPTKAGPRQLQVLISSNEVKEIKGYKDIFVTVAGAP

[13] = target: T6, TG5 (Homo sapiens (assumed), UniProt O43548); assay: as above
T6 construct: transglutaminase family member TG5; also called transglutaminase 5
T6 sequence (O43548 whole entry): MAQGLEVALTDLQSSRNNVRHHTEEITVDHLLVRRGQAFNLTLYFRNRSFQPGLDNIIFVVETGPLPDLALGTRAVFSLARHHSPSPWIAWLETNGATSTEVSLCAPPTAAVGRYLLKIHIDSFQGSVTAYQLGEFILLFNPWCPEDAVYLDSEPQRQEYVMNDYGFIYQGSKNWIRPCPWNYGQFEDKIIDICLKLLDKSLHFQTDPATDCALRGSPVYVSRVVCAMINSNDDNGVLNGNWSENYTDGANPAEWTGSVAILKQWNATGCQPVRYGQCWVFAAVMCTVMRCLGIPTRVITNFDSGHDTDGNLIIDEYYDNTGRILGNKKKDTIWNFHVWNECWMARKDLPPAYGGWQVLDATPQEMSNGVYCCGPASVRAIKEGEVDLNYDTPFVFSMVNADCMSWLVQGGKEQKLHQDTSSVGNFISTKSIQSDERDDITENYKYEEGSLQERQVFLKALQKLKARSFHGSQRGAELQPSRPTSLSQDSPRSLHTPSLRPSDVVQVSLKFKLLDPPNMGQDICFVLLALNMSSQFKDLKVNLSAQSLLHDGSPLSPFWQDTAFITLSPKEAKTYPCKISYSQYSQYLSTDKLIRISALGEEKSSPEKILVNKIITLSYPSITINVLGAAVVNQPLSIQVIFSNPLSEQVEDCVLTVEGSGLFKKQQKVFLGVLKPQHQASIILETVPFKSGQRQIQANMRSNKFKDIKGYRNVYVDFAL

[14] = target: T1, human transglutaminase 2; assay: SPR; BIAcore T200; test antibody captured (~100-200 RU) by goat anti-human IgG Fc F(ab')2 immobilised on a CM5 chip; TG2 titrated over it at 100 nM to 6.25 nM, 600 s association, up to 3200 s dissociation; 10 mM HEPES pH 7.4, 0.15 M NaCl, 0.005% Surfactant P20, 2 mM CaCl2 (+Ca2+); 1:1 fit; conditions: both partners purified
[15] = target: rabbit transglutaminase 2 (rabbit)

Molecule | binding result [3] | IC50 of inhibition of TG2 activity (KxD assay on recombinant protein by the text; biotin cadaverine incorporation by the table's footnote) [4] [nM] | IC50 of inhibition of TG2 activity (KxD assay on recombinant protein by the text; biotin cadaverine incorporation by the table's footnote) [8] [nM] | binding result [9] | binding result [10] | EC50 [11] [nM] | binding result [12] | binding result [13] | Kd [14] [nM] | other results
cynomolgus monkey transglutaminase 2 (enzyme) | – | – | – | – | – | – | – | – | – | Kd [1]: < 0.05 nM; Kd [2]: < 0.037 nM
mBB7 (antibody, V domains shown) VH: AVQLVESGGGLVKPGGSLKLSCAASGIIFSSSAMSWVRQTPEKRLEWVATISSGGRSTYYPDSVKGRFTVSRDSAKNTLYLQMDSLRSEDTAIYYCAKLISPYWGQGTTLTVSS VL: AIKMTQSPSSMYASLGERVIITCKASQDINSYLTWFQQKPGKSPKTLIYLTNRLMDGVPSRFSGSGSGQEFLLTISGLEHEDMGIYYCLQYVDFPYTFGGGTKLEIK | binds | – | – | – | – | – | – | – | – | –
mDC1 (antibody, V domains shown) VH: EVQLVESGGGLVKPGGSLKLSCAASGFTLSTHAMSWVRQTPEKRLEWVATISSGGRSTYYPDSVKGRFTISRDNVKNTLYLQLSSLRSEDTAVYFCARLISTYWGQGTTLTVSS VL: DITMTQSPSSIYASLGERVTITCKASQDINSYLTWFQQKPGKSPKILIYLVNRLVDGVPSRFSGSGSGQDYALTISSLEYEDMGIYYCLQYDDFPYTFGGGTKLEIK | binds | – | – | – | – | – | – | – | – | –

More lines, main results first:

binding result [3] | IC50 of inhibition of TG2 activity (KxD assay on recombinant protein by the text; biotin cadaverine incorporation by the table's footnote) [4] [nM] | IC50 of inhibition of TG2 activity (KxD assay on recombinant protein by the text; biotin cadaverine incorporation by the table's footnote) [8] [nM] | binding result [9] | binding result [10] | EC50 [11] [nM] | binding result [12] | binding result [13] | Kd [14] [nM] | Molecule | other results
– | 0.25 | 0.22 | no binding (tested: 100 nM) | no binding (tested: 100 nM) | ~0.02 | no binding (tested: 100 nM) | no binding (tested: 100 nM) | < 0.05 | zampilimab (antibody, V domains shown, humanized DC1 VH; DC1 CDRs grafted on the human framework AF062260 with back mutation of the 5 Å Proximity residues; human heavy chain constant region; humanized DC1 VK; DC1 CDRs grafted on the human framework AF193851 with back mutation of the 5 Å Proximity residues; The discussion speaks of zampilimab as an IgG4P antibody in the monkey study; also called hDC1; UCB7858; source: Expi293 cells, …) VH: EVQLLESGGGLVQPGGSLRLSCAASGFTLSTHAMSWVRQAPGKGLEWVATISSGGRSTYYPDSVKGRFTISRDNSKNTLYLQMNSLRAEDTAVYFCARLISTYWGQGTLVTVSS VL: DITMTQSPSSLSASVGDRVTITCKASQDINSYLTWFQQKPGKAPKILIYLVNRLVDGVPSRFSGSGSGQDYALTISSLQPEDFATYYCLQYDDFPYTFGQGTKVEIK | IC50 of inhibition of TG2 activity (KxD assay on recombinant protein by the text; biotin cadaverine incorporation by the table's footnote) [5]: 103 nM; IC50 of inhibition of extracellular TG activity (biotin cadaverine incorporation) in primary human RPTEC induced with TGF-β1, four independent studies [6]: 119 nM; Kd [7]: < 0.107 nM
– | 0.28 | 0.25 | no binding (tested: 100 nM) | no binding (tested: 100 nM) | ~0.02 | no binding (tested: 100 nM) | no binding (tested: 100 nM) | < 0.06 | hBB7 (antibody, V domains shown, humanized BB7 VH; BB7 CDRs grafted on the human framework AF062260 with back mutation of the 5 Å Proximity residues; human heavy chain constant region; humanized BB7 VK; BB7 CDRs grafted on the human framework AF193851 with back mutation of the 5 Å Proximity residues; also called humanized BB7; source: Expi293 cells, co-transfected heavy and kappa light chain vectors, purified from supernatant …) VH: EVQLLESGGGLVQPGGSLRLSCAASGIIFSSSAMSWVRQAPGKGLEWVATISSGGRSTYYPDSVKGRFTVSRDSSKNTLYLQMNSLRAEDTAVYYCAKLISPYWGQGTLVTVSS VL: DIKMTQSPSSLSASVGDRVTITCKASQDINSYLTWFQQKPGKAPKTLIYLTNRLMDGVPSRFSGSGSGQEFLLTISSLQPEDFATYYCLQYVDFPYTFGQGTKVEIK | IC50 of inhibition of TG2 activity (KxD assay on recombinant protein by the text; biotin cadaverine incorporation by the table's footnote) [15]: 6.59 nM
